From publication PMC10623103, “A case of hyperlysinemia identified by urine newborn screening” (JIMD Reports, 2023) come the findings set out here.

The data set deals with the molecule itself. The data set is described as follows: SEC; Superdex200 Increase on an AKTA FPLC after IMAC; uncut His-SUMOstar-LOR; elution compared with the expected tetrameric size and the aggregation peak.

B1: 2-aminoadipic semialdehyde synthase (AASS) lysine 2-oxoglutarate reductase (LOR) domain, p.T371I variant, His-SUMOstar-LOR [residues 21-470] (domain or fragment, human, UniProt Q9UDR5 21-470, looked up)
chain: HHKAVLAVRREDVNAWERRAPLAPKHIKGITNLGYKVLIQPSNRRAIHDKDYVKAGGILQEDISEACLILGVKRPPEEKLMSRKTYAFFSHTIKAQEANMGLLDEILKQEIRLIDYEKMVDHRGVRVVAFGQWAGVAGMINILHGMGLRLLALGHHTPFMHIGMAHNYRNSSQAVQAVRDAGYEISLGLMPKSIGPLTFVFTGTGNVSKGAQAIFNELPCEYVEPHELKEVSQTGDLRKVYGTVLSRHHHLVRKTDAVYDPAEYDKHPERYISRFNTDIAPYTTCLINGIYWEQNTPRLLTRQDAQSLLAPGKFSPAGVEGCPALPHKLVAICDISADTGGSIEFMTECTIIEHPFCMYDADQHIIHDSVEGSGILMCSIDNLPAQLPIEATECFGDMLYPYVEEMILSDATQPLESQNFSPVVRDAVITSNGTLPDKYKYIQTLRESRE
notes: 2-aminoadipic semialdehyde synthase (AASS), LOR domain, residues 21-470, patient variant c.1112C>T (p.T371I); Purified as uncut SUMOstar-LOR; calculated MW of the His-SUMOstar-LOR monomer is 62.4 kD; PDB 8E8U is the wild-type LOR structure (cited); also called I371 variant; LOR variant; source: E. coli LOBSTR cells, purified (IMAC, size-exclusion chromatography on Superdex200 Increase); not …
As to B1, the binding result was “binds”.
